According to PMC7954794, “Protein context shapes the specificity of SH3 domain-mediated interactions in vivo” (Nature Communications, 2021):

B1: YDR166C (protein, UniProt P89102 1-971, looked up)
Exocyst complex component SEC5: MDRFQIGDEQLLRFYQLKTINPTHSWAQDSSKLNNEEATSNELGVETSFDILKDFKYGNQISIDKESRAYLNDESLSYIRDPLNGQEMSKELQHLPNDSMRLNYLVNSKQFNVKAFLRDMHKQDSFNDLNNSLDRLDSDIQDQSIHLKQLVGKNFTKYVKIKNKLDQIYKEFDEKTNEKNQCDSPKENQINVESLNKKVDEVIRTTTFKLKPLMDNYQKILNYQATKKFIELNKFYFNLPKSLKRCLTNNDFNEFIIEYSKGLTLRRRFNQSSDASQSLVIKRIWTQIENLLVTYKDLIWNSLINSNFNIDQPQETILSLFSKLLNLENFINNNQRESESGNKNTTSSSNENPILRWMSIKMNGFQNELNELSGHMISKIIHSQRLILQNNTNQDKSQGCVELSYYLKINQLFQIISDTGKDSEGLKSTVEPNKVNTISGTSYLNLNCQPSSQGLTDSPTIIEMWLLILKYINDLWKICDQFIEFWEHIEKFLDGTYQNSIINEKRKENILIGDSNIIESYQKSLILKEEQINEVRLKGEEFITSVSQNLISFFTSSQSSLPSSLKDSTGDITRSNKDSGSPLDYGFIPPNCNGLSCLRYLPKIVEPILKFSTELAQLNITTNGITICRNTLSTIINRCVGAISSTKLRDISNFYQLENWQVYETVTFSSKSQDSSKNLTFEYGVTQFPEIVTSFQEVSIKTTRDLLFAYEKLPIINGISVVSYPSKQLLTGIEIQQIISMEAVLEAILKNAAKDKDNPRNSHTILTLTNLQYFRECAFPNILQYFDDAFEWNLASKNLELFSLLSKMESSIFGNYLSDLKINLRDTLEEKFHEINWPMYTSNSFRVGDYIIEALMILIVVHSECFRIGPQLIHKILIETQIFIARYLFEAFKPYVGNLSNDGSLQIIVDLEFFQKVMGPLLEKDTEATLRACLQNCFQNDTNRLQKCINEINPIVSANLKRTAIQFAAFS
B2: YDR379W (protein, UniProt Q06407 1-1009, looked up)
Rho-type GTPase-activating …: MSADPINDQSSLCVRCNKSIASSQVYELESKKWHDQCFTCYKCDKKLNADSDFLVLDIGTLICYDCSDKCTNCGDKIDDTAIILPSSNEAYCSNCFRCCRCSNRIKNLKYAKTKRGLCCMDCHEKLLRKKQLLLENQTKNSSKEDFPIKLPERSVKRPLSPTRINGKSDVSTNNTAISKNLVSSNEDQQLTPQVLVSQERDESSLNDNNDNDNSKDREETSSHARTVSIDDILNSTLEHDSNSIEEQSLVDNEDYINKMGEDVTYRLLKPQRANRDSIVVKDPRIPNSNSNANRFFSIYDKEETDKDDTDNKENEIIVNTPRNSTDKITSPLNSPMAVQMNEEVEPPHGLALTLSEATKENNKSSQGIQTSTSKSMNHVSPITRTDTVEMKTSTSSSTLRLSDNGSFSRPQTADNLLPHKKVAPSPNKKLSRSFSLKSKNFVHNLKSKTSEMLDPKHPHHSTSIQESDTHSGWGVSSTHTNIRKSKAKKNPVSRGQSDSTIYNTLPQHGNFTVPEFNHKKAQSSLGSISKKQNSNDTATNRRINGSFTSSSSGHHIAMFRTPPLESGPLFKRPSLSSESAHHRSSSLQTSRSTNALLEDDSTKVDATDESATSLEKDFYFTELTLRKLKLDVRELEGTKKKLLQDVENLRLAKERLLNDVDNLTREKDKQSASSRESLEQKENIATSITVKSPSSNSDRKGSISNASPKPRFWKIFSSAKDHQVGDLESQQRSPNSSSGGTTNIAQKEISSPKLIRVHDELPSPGKVPLSPSPKRLDYTPDGSHLYGSSLQARCAYEKSTVPIIIRCCIDRIEKDDIGLNMEGLYRKSGSQTLVEEIENEFAQNNSLHSDTLSPKLNALLNQDIHAVASVLKRYLRKLPDPVLSFSIYDALIDLVRNNQLIERLPLNNDKFLDSPQKVTIYEMVLKSLLEIFKILPVEHQEVLKVLAAHIGKVRRCSERNLMNLHNLSLVFAPSLIHDFDGEKDIVDMKERNYIVEFILGNYRDIFKQA
B3: YAL041W (protein, UniProt P11433 1-854, looked up)
Cell division control protein …: MAIQTRFASGTSLSDLKPKPSATSISIPMQNVMNKPVTEQDSLFHICANIRKRLEVLPQLKPFLQLAYQSSEVLSERQSLLLSQKQHQELLKSNGANRDSSDLAPTLRSSSISTATSLMSMEGISYTNSNPSATPNMEDTLLTFSMGILPITMDCDPVTQLSQLFQQGAPLCILFNSVKPQFKLPVIASDDLKVCKKSIYDFILGCKKHFAFNDEELFTISDVFANSTSQLVKVLEVVETLMNSSPTIFPSKSKTQQIMNAENQHRHQPQQSSKKHNEYVKIIKEFVATERKYVHDLEILDKYRQQLLDSNLITSEELYMLFPNLGDAIDFQRRFLISLEINALVEPSKQRIGALFMHSKHFFKLYEPWSIGQNAAIEFLSSTLHKMRVDESQRFIINNKLELQSFLYKPVQRLCRYPLLVKELLAESSDDNNTKELEAALDISKNIARSINENQRRTENHQVVKKLYGRVVNWKGYRISKFGELLYFDKVFISTTNSSSEPEREFEVYLFEKIIILFSEVVTKKSASSLILKKKSSTSASISASNITDNNGSPHHSYHKRHSNSSSSNNIHLSSSSAAAIIHSSTNSSDNNSNNSSSSSLFKLSANEPKLDLRGRIMIMNLNQIIPQNNRSLNITWESIKEQGNFLLKFKNEETRDNWSSCLQQLIHDLKNEQFKARHHSSTSTTSSTAKSSSMMSPTTTMNTPNHHNSRQTHDSMASFSSSHMKRVSDVLPKRRTTSSSFESEIKSISENFKNSIPESSILFRISYNNNSNNTSSSEIFTLLVEKVWNFDDLIMAINSKISNTHNNNISPITKIKYQDEDGDFVVLGSDEDWNVAKEMLAENNEKFLNIRLY
B4: YKR048C (protein, UniProt P25293 1-417, looked up)
Nucleosome assembly protein: MSDPIRTKPKSSMQIDNAPTPHNTPASVLNPSYLKNGNPVRAQAQEQDDKIGTINEEDILANQPLLLQSIQDRLGSLVGQDSGYVGGLPKNVKEKLLSLKTLQSELFEVEKEFQVEMFELENKFLQKYKPIWEQRSRIISGQEQPKPEQIAKGQEIVESLNETELLVDEEEKAQNDSEEEQVKGIPSFWLTALENLPIVCDTITDRDAEVLEYLQDIGLEYLTDGRPGFKLLFRFDSSANPFFTNDILCKTYFYQKELGYSGDFIYDHAEGCEISWKDNAHNVTVDLEMRKQRNKTTKQVRTIEKITPIESFFNFFDPPKIQNEDQDEELEEDLEERLALDYSIGEQLKDKLIPRAVDWFTGAALEFEFEEDEEEADEDEDEEEDDDHGLEDDDGESAEEQDDFAGRPEQAPECKQS
B5: YER114C (protein)
chain: PMYIAINEYFKRMEDELDMKPGDKIKVITDDEEYKDGWYFGRNLRTNEEGLYPVVFTQKIT

How the values were obtained:
Assay type in all cases: cell-based, Saccharomyces cerevisiae
[1] = tested on: BEM1-1; test: DHFR-PCA on solid medium, bait BEM1-1 (Fig. 1B); settings: bait BEM1-1, label = prey; 2-8 replicates
Description: (§1) Supplement 41467_2021_21873_MOESM8_ESM.xlsx, sheet "Fig1B" | column: medsize; medrep; Ratio; Score

[2] = tested on: BEM1-2; test: DHFR-PCA on solid medium, bait BEM1-2 (Fig. 1B); settings: bait BEM1-2, label = prey; for medrep (log2 median colony size normalized to plate background, PCA score): 2-8 replicates; for Ratio (SH3-deleted/WT medrep): only significant differences showed, PPIs completely lost have a ratio of 0.1 and the gained PPIs 2.5
Description: as §1

[3] = tested on: BOI2; test: DHFR-PCA on solid medium, bait BOI2 (Fig. 1B); settings: bait BOI2, label = prey; for medrep (log2 median colony size normalized to plate background, PCA score): 3-8 replicates; for Ratio (SH3-deleted/WT medrep): only significant differences showed, PPIs completely lost have a ratio of 0.1 and the gained PPIs 2.5
Description: as §1

[4] = tested on: BOI1; test: DHFR-PCA on solid medium, bait BOI1 (Fig. 1B); settings: bait BOI1, label = prey; for medrep (log2 median colony size normalized to plate background, PCA score): 3-8 replicates
Description: as §1

[5] = tested on: BBC1; test: DHFR-PCA on solid medium, bait BBC1 (Fig. 1B); settings: bait BBC1, label = prey
Description: as §1

[6] = tested on: ABP1; test: DHFR-PCA on solid medium, bait ABP1 (Fig. 1B); settings: bait ABP1, label = prey; 2-4 replicates
Description: as §1

[7] = tested on: 575 putative partners (preys) of 22 WT SH3-containing proteins; test: DHFR-PCA on solid medium, WT and SH3-deleted baits (Fig. 1B); set-up: key to Score: 0: SH3-independent; 1: SH3-dependent PPIs; 2: SH3-inhibited PPIs; settings: for medrep (log2 median colony size normalized to plate background, PCA score): label = prey
In short: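 In S. cerevisiae, 22 SH3-containing baits fused genomically to DHFR F[1,2], either WT or with each SH3 replaced via CRISPR by a poly-Gly/Ser linker, screened against 575 DHFR F[3] preys plus 40 negative controls in 1536 arrays, preys duplicated at randomized positions.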

[8] = only significant differences showed, PPIs completely lost have a ratio of 0.1 and the gained PPIs 2.5

Row | Molecule | medrep (log2 median colony size normalized to plate background, PCA score) [1] | medrep (log2 median colony size normalized to plate background, PCA score) [2] | Ratio (SH3-deleted/WT medrep) [2] | medrep (log2 median colony size normalized to plate background, PCA score) [3] | Ratio (SH3-deleted/WT medrep) [3] | medrep (log2 median colony size normalized to plate background, PCA score) [4] | Ratio (SH3-deleted/WT medrep) [4, 8] | medrep (log2 median colony size normalized to plate background, PCA score) ([5]; 2-4 replicates) | Ratio (SH3-deleted/WT medrep) [5, 8] | medrep (log2 median colony size normalized to plate background, PCA score) [6] | medrep (log2 median colony size normalized to plate background, PCA score) ([7]; bait SLA1-2, DHFR-PCA, Replicates 4 (2 for YCR009C, YDR388W)) | Score ([7]; bait SLA1-2, label = prey) | Ratio (SH3-deleted/WT medrep) ([7]; bait SLA1-2, label = prey, only significant differences shown, PPIs completely lost have a ratio of 0.1, gained PPIs 2.5) | medrep (log2 median colony size normalized to plate background, PCA score) ([7]; bait SLA1-3, DHFR-PCA, Replicates 4 (2 for YCR009C, YDR388W, YIL033C)) | Score ([7]; bait SLA1-3, label = prey)
1 | B1 | 2.981 | 2.981 | 0.1 | 1.688 | 0.1 | – | – | – | – | – | – | – | – | – | –
2 | B2 | 2.957 | 2.957 | 0.1 | 2.382 | – | 1.407 | 2.5 | – | – | – | – | – | – | – | –
3 | B3 | 4.862 | 4.862 | – | 3.947 | – | 2.673 | – | – | – | – | – | – | – | – | –
4 | B4 | – | – | – | 1.303 | 2.5 | – | – | 1.806 | 0.1 | 3.939 | 1.303 | 1 | 0.1 | 1.303 | 0
5 | B5 | 2.85 | 2.85 | 0.1 | 3.383 | – | – | – | – | – | – | – | – | – | – | –
